B1: OVA-PEG: ovalbumin conjugated to ~10 kDa PEG via activated carbonate-amine conjugation (conjugate, UniProt P01012 2-386, looked up)
Ovalbumin: GSIGAASMEFCFDVFKELKVHHANENIFYCPIAIMSALAMVYLGAKDSTRTQINKVVRFDKLPGFGDSIEAQCGTSVNVHSSLRDILNQITKPNDVYSFSLASRLYAEERYPILPEYLQCVKELYRGGLEPINFQTAADQARELINSWVESQTNGIIRNVLQPSSVDSQTAMVLVNAIVFKGLWEKAFKDEDTQAMPFRVTEQESKPVQMMYQIGLFRVASMASEKMKILELPFASGTMSMLVLLPDEVSGLEQLESIINFEKLTEWTSSNVMEERKIKVYLPRMKMEEKYNLTSVLMAMGITDVFSSSANLSGISSAESLKISQAVHAAHAEINEAGREVVGSAEAGVDAASVSEEFRADHPFLFCIKHIATNAVLFFGRCVSP
modifications: 10 kDa PEG conjugate
B2: OVA-POEGMA: ovalbumin conjugated to ~10 kDa EG3 POEGMA via activated carbonate-amine conjugation (conjugate, UniProt P01012 2-386, looked up)
Ovalbumin: B1 Ovalbumin
modifications: 10 kDa EG3 POEGMA conjugate

Tests used:
[1] = test system: C57BL6/J mice; settings: mouse, in vivo
Procedure: (§1) Immunogenicity. Immunogenicity of POEGMA was tested and compared to that of PEG in three sets of immunogenicity experiments. […] In the second set of experiments, mice were injected with OVA (Invivogen), OVA-PEG10K, and OVA-POEGMA10K at 9.6 nmol kg^−1. In the final set, OVA, OVA-PEG10K, and OVA-POEGMA10K were emulsified in an equal volume of sterile and endotoxin-free adjuvant (Invivogen) and then administrated into 7-week-old C57BL/6J mice (n=10) at 9.6 nmol kg^−1. Complete Freund's adjuvant (CFA) was used for the first injection, while incomplete Freund's adjuvant (IFA) was the adjuvant of choice for the rest of the injections. In all experimental sets, an equal injection volume of PBS (or PBS emulsified in CFA or IFA) was used as a negative control. All drugs were administrated into mice every 17 days three times (Day 0, 17, and 34). […]
(§2) Analysis of anti-drug antibodies (ADA), ADAs were analyzed using a Luminex multiplex immunoassay (LMI) according to the manufacturer's instructions with minor modifications. […]
(§3) In a typical LMI assay, 50 μl of the diluted plasma samples (n=3) were transferred to a black, round-bottom 96-well-plate (Corning). […] Finally, magnetic beads were suspended in 100 μl of assay buffer, followed by measuring mean fluorescence signal intensity (MFI) using MAGPIX (Luminex) instrument. […]

[2] = test system: C57BL/6J mice; settings: mouse, in vivo, sc
Procedure: as §1, §2, §3

| Molecule | PEG-specific IgM titer, higher than with exendin-PEG [1] [fold] | anti-POEGMA response with Freund's adjuvant [2] |
| --- | --- | --- |
| B1 | ~60 |  |
| B2 |  | only a weak IgM response disappearing after the first injection |

— patent US20240181013A1, “POEGMA COPOLYMER CONJUGATES AND METHODS OF TREATING DISEASES” (Duke University, priority 2021, published 2024)
